The text below walks through data of patent US12668636B2, “Pharmaceutical combinations” (BERLIN-CHEMIE AG, priority 2017, dated 2026).

The target in one assay is T1, LY75 (Homo sapiens, UniProt O60449).
T1 construct: from tissue; host or cells: FFPE triple negative breast cancer sections
In words: Immunohistochemistry using monoclonal antibody to LY75. The note with it: FFPE Triple Negative breast cancer samples. The protocol: FFPE slides were deparaffinised in xylene (2×3 minutes) then rehydrated through 1:1 xylene: 100% ethanol (1×3 minutes), 100% ethanol (2×3 minutes), 95% ethanol (1×3 minutes), 70% ethanol (1×3 minutes), 50% ethanol (1×3 minutes), and tap water (1×3 minutes).
The LY75 antigen was retrieved using microwave heat, high power until boiling then low power for 10 minutes in 50 mL 1× citrate buffer in a Coplin jar. Slides were then left to cool to room temperature for a further 15 min, then washed in tap water, 3 minutes. Circles were drawn around each tissue section/TMA with a hydrophobic barrier pen and slides were then washed 3 times in PBS, 3 minutes each wash.
The primary anti-LY75 antibody was diluted in serum free protein block (SFPB) to obtain a solution with a concentration 20-fold greater than the final desired concentration (20 μg/mL for 1 μg/mL final). The secondary antibody, goat anti-human immunoglobulin G (IgG) antigen-binding fragment (Fab), was prepared similarly in SFPB to create a solution of equal concentration.
Equal volumes of primary and secondary antibodies were combined in a labelled tube, gently mixed, and incubated for 3 minutes at room temperature, resulting in a primary antibody concentration 10-fold greater than the desired final concentration (10 μg/mL for 1 μg/mL final). […]

In another assay the target is T2, LY75 on COLO205 cells (Homo sapiens, UniProt O60449).
T2 construct: COLO205 cells (ATCC, catalog #CCL-222) were detached from tissue culture flasks; host or cells: COLO205
T2 sequence (O60449 28-1722): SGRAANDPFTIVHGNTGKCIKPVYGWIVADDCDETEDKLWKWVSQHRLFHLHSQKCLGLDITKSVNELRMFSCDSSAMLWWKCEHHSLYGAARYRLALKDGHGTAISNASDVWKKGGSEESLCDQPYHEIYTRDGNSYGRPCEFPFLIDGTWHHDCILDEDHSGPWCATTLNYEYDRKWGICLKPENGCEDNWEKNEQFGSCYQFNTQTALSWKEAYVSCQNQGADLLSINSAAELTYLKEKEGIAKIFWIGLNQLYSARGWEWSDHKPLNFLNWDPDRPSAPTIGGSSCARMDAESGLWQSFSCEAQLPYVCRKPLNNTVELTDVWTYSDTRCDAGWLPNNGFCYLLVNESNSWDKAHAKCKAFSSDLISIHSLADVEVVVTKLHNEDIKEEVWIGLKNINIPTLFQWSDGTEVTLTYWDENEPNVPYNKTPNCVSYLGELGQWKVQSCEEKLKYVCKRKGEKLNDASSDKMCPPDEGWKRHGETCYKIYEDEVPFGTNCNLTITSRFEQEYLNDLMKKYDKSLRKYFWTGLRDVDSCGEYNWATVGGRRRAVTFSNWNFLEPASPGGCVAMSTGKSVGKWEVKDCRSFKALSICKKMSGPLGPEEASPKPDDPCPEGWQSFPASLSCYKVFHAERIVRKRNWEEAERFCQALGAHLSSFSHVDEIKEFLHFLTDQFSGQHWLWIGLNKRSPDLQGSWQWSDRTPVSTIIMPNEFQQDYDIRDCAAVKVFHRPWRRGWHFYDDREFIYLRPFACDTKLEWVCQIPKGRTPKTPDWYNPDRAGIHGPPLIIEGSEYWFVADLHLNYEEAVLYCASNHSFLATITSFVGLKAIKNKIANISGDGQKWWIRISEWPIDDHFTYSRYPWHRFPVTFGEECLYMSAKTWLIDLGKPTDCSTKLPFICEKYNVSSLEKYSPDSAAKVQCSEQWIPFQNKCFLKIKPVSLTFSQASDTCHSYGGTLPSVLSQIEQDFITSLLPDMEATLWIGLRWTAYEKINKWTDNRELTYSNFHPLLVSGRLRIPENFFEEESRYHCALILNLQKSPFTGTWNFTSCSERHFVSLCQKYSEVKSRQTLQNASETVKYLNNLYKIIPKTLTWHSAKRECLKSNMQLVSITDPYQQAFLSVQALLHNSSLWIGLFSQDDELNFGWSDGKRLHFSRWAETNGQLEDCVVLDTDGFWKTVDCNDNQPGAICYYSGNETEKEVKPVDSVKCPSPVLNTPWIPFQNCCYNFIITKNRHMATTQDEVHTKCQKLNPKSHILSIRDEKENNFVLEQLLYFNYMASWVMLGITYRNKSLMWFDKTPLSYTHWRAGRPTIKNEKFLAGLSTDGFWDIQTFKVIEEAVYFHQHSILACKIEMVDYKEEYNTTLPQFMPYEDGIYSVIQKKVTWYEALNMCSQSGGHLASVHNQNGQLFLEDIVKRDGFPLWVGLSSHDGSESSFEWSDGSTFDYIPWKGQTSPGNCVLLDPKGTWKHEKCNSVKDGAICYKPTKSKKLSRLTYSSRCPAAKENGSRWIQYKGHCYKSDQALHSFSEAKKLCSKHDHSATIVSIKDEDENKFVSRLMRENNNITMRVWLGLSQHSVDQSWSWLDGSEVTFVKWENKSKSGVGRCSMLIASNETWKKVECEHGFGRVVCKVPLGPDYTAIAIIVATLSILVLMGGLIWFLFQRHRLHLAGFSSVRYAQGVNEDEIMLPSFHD
The assay is described as follows: Competitive FACS binding analysis. Conditions: blocking antibody from 250 nM, 3 fold serial dilution, conjugate 1 nM (FIG. 5b). The protocol:
COLO205 cells (ATCC, catalog #CCL-222) were detached from tissue culture flasks with Cell Stripper (Cellgro, catalog #MT-25-056CI). Cells were washed and resuspended in FACS buffer (PBS+2% FBS), neutralized with growth media, and counted. Cells were plated at 50,000 cells per well in a V Bottom 96-well plate. Cells were washed once with FACS buffer (PBS (Fisher, catalog #SH30028-03)+2% FBS). An anti-LY75-mAb (Selected from Example 1) or LY75_A1 was added to wells starting at 250 nM and diluted serially 3 fold and applied to the relevant wells for 45 minutes on ice. Test wells that required single or multiple staining steps were left in FACS buffer as appropriate to ensure the final staining was completed simultaneously for all conditions tested. Two wells were left unstained in FACS buffer as controls.
After the incubation with blocking antibody, cells were washed twice in FACS buffer. The cells were resuspended in FACS buffer containing the anti-LY75-mAb conjugated to MCC-DM1 (1 nM) and incubated on ice for 45 minutes. The cells were washed as above and resuspended in FACS buffer plus 1 ug/ml mouse anti-maytansine antibody and incubated in ice for 45 minutes. […] Mean fluorescence intensity of each sample was determined using a Guava EasyCyte Plus HT Flow Cytometer (96 well plate formats) and the raw data was analyzed using the Guava Cytosoft.

In assay [1] the test system is Contiguous 8mer peptides of LY75 protein. The assay is described as follows: Peptide microarray epitope characterization. The assay is classed as binding. The note with it: 1 μg/mL LY75_A1, scale 1-65535. The protocol:
The peptide microarray analysis was performed by LC Sciences, Houston TX, in brief the method comprised the following steps:—Contiguous 8mer peptides of LY75 protein having one amino acid overlap spanning residues 216 to 1666 of the full length LY75 protein were synthesized and immobilized on a microarray chip. The chip comprised three panels such that the experiment was performed in triplicate. The microarray was addressed with LY75_A1 to identify the peptides to which the antibody bound. The binding assay was performed under the following conditions:—
The microarray comprising the contiguous peptides in triplicate was washed with 1 mL of binding buffer at 4° C. for 20 min. It was then incubated with 1 μg/mL LY75_A1 in binding buffer (pH 7.0) at 4° C. for 2 hrs. The array was again washed with 0.5 mL of washing buffer at 4° C. for 30 min then incubated with 25 ng/ml anti-human IgG Alexa 647 conjugate in binding buffer (pH 7.0) at 4° C. for 1 hr. The array was again washed with 0.5 mL of washing buffer at 4° C. for 30 min. The array was then Scanned at 635 nm and PMT 500 and the signal Intensity was recorded. The peptide was classed as detectable if it was present in at least ⅔ legal duplicates. The average signal intensity of the replicates was reported as the final signal intensity. Results

T1 sequence (O60449 28-1722): as above

B1: LY75_A1: anti-LY75 human monoclonal antibody; VH SEQ ID NO:1, VL SEQ ID NO:2 (antibody, listed as Homo sapiens, V domains shown)
VH: EVQLVESGGGLVKPGGSLRLSCAASGFTYSNAWMSWVRQAPGKGLEWVGRIKSKTDGGTTDYAAPVQGRFTISRDDSKNTLYLQMNSLKTEDTAVYYCTIFGVVSFDYWGQGTLVTVSS
VL: DVQMTQSPSSLSASVGDRVTITCRASQSISDYLSWYQQRPGKAPNLLIYAASNLKTGVPSRFSGSGSGTDFTLTISTLQPEDFATYYCQQSYRSPWTFGQGTKVEIKR
Turning to B1, in the assay with LY75, the “sections exhibiting robust (+++) staining” value is 55% and the “sections showing positive staining” value turned out to be 77%. Also, the “blocking of binding of anti-LY75-mAb-MCC-DM1” value with LY75 on COLO205 cells is “unable to block binding of anti-LY75-mAb-MCC-DM1”. For the same molecule, in assay [1], the “average signal for all spots on the array” value is “about 885”. Further, the “maximum signal seen for binding” value in assay [1] (background cut off 3000) is on record as 25000.
